According to patent publication US20250326862A1, “Antibody or Fragment Thereof Binding Specifically to Mertk, and Anti-Tumor Agent” (Chiome Bioscience Inc., priority 2021, published 2025):
Entries after “also recorded” stand apart in the source; their conditions may differ.

Legend:
[1] = biological target: T1, human MerTK (Homo sapiens, UniProt Q12866); test: Test 9: antigen binding activity of humanized antibodies by ELISA; details: compared with the original human chimeric antibody (m20A77_hIgG1LALA or 24A1_hIgG1LALA, respectively); FIG. 21
T1 sequence (Q12866 21-999): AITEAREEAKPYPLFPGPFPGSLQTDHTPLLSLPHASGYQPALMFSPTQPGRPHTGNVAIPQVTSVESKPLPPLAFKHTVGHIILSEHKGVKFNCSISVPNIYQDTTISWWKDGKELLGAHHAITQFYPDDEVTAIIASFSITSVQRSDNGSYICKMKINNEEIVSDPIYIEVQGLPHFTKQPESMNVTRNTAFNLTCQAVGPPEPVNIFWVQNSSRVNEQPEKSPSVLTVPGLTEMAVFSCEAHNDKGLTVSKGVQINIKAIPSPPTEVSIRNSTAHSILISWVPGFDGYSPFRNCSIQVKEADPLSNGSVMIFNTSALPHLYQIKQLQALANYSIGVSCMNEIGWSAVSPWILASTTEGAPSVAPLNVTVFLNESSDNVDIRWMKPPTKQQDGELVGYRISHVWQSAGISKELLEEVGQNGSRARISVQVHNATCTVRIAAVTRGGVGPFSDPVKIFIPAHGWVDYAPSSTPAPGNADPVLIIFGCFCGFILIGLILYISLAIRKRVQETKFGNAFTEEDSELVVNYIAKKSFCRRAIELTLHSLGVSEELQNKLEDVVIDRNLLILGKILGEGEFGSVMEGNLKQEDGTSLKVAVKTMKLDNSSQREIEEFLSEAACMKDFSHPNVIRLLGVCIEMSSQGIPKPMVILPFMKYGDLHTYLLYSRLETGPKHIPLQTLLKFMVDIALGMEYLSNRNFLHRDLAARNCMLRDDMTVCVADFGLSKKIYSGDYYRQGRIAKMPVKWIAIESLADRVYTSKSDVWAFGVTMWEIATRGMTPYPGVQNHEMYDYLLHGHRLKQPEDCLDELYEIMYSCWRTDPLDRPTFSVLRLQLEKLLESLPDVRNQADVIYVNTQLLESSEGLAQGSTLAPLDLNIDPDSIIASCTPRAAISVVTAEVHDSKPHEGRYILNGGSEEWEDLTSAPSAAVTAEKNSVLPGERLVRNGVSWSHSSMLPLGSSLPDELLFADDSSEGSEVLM
Description: (§1) The ELISA was performed according to the procedures indicated below. First, the respective antigens were added to an ELISA plate (Nunc) at a concentration of 5 μg/ml and immobilized overnight at room temperature. After removing the immobilization solution, 1% BSA/PBS was added for blocking reaction and left to stand at room temperature for 1 hour. After the blocking, the plate was washed with 0.05% Tween 20/PBS and an antibody solution was added for primary reaction at room temperature for 1 hour. After washing, an HRP-labelled antibody (GE Healthcare) was added for secondary reaction for 1 hour. After washing, a chromogenic substrate solution of TMB (Dako) was added for chromogenic reaction for 10 minutes, 1 N sulfuric acid was added to terminate the reaction and the absorbance was measured at 450 nm.
The prepared antibodies were checked for antigen binding activity by ELISA.

[2] = biological target: T1, human MerTK; test: MerTK phosphorylation inhibition test in hMerTK-EL4 cells stimulated with human Gas6; format: cell-based; design: expressed in transfected cells; host or cells: mouse lymphoma cell line EL4 (hMerTK-EL4); details: hMerTK-EL4, antibody 1 hour, then 200 nM human Gas6 for 10 minutes; phospho-Mer ELISA; FIG. 1
Description: On the basis of the procedures indicated below, the clones were evaluated for MerTK phosphorylation inhibitory activity. Higher activity means higher binding ability to MerTK.
The cells (hMerTK-EL4) stably expressing human MerTK were cultured in a “DMEM high glucose medium” (Thermo Fisher Scientific Inc.) containing 10% FBS. After the cultivation, the cells were washed in PBS, suspended in a serum-free medium, plated in a 96-well plate at 1×10^6 cells/well and incubated at 37° C. for 3 hours. After the incubation, the respective clones were added, the hMerTK-EL4 was allowed to react for 1 hour, stimulated with 200 nM human Gas6 (R&D Systems) for 10 minutes and centrifuged and collected. The collected hMerTK-EL4 was lysed in a cell lysis solution, and the level of the phosphorylated MerTK protein in the lysate was determined using “Human Phospho-Mer DuoSet IC ELISA” (R&D Systems). The cell lysis solution used contained 1% “IGEPAL CA-630” (SIGMA) and 1×concentration of “Halt Protease and Phosphatase Inhibitor Single-Use Inhibitor Cocktail” (Thermo Fisher Scientific Inc.) added to MilliQ water.

[3] = biological target: T2, binding of MerTK with Gas6 (Homo sapiens, UniProt Q12866); test: Test 6: ligand binding inhibition ELISA, MerTK with Gas6; details: human MerTK 5 μg/ml immobilized; biotinylated Gas6 10 nM; FIGS. 13 and 15
T2 construct: purchased R&D Systems
T2 sequence (Q12866 26-499 limits assumed): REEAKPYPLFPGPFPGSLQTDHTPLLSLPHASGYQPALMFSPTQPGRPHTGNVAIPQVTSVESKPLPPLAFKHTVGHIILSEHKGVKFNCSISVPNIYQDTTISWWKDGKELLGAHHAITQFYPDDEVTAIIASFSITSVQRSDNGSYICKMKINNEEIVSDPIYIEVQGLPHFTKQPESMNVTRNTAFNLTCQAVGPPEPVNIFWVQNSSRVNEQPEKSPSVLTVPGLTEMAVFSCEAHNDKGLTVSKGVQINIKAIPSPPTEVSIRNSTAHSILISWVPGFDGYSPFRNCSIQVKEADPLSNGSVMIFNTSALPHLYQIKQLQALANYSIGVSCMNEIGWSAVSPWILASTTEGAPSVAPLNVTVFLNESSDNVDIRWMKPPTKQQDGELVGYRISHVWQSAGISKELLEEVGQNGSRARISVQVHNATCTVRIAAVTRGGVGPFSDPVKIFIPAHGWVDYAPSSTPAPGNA
Description: (§2) “20A77” and “24A1” were evaluated for the ability to inhibit binding of MerTK with various ligands. The MerTK ligands used were human Gas6 (R&D Systems) and human TULP1 (abcam plc.) which were respectively biotinylated using “Biotin Labeling Kit-NH” (Dojindo Laboratories Co., Ltd.). […] TULP1 is a ligand correlated with ocular toxicity, and an antibody having an activity to inhibit binding of MerTK with TULP1 may have ocular toxicity. Thus, an antibody having high inhibitory activity of binding to Gas6 and low inhibitory activity of binding to TULP1 may be an efficacious anti-tumor agent having low ocular toxicity.
as §1, with “The ligand binding inhibition test” for “The ELISA”, “was carried out as” for “was performed according to the procedures”, “First, human MerTK (R&D Systems) was” for “First, the respective antigens were”, “hour. […]” for “hour. After washing, an HRP-labelled antibody (GE Healthcare) was added for secondary reaction for 1 hour.”, “for 20” for “for 10”

[4] = biological target: T3, binding of MerTK with TULP1 (Homo sapiens, UniProt Q12866); test: Test 6: ligand binding inhibition ELISA, MerTK with TULP1; details: human MerTK 5 μg/ml immobilized; biotinylated TULP1 40 nM; FIGS. 14 and 16
T3 construct: purchased R&D Systems
T3 sequence (Q12866 26-499 limits assumed): T2 sequence (Q12866 26-499 limits assumed)
Description: as §2
as §1, with “The ligand binding inhibition test” for “The ELISA”, “was carried out as” for “was performed according to the procedures”, “First, human MerTK (R&D Systems) was” for “First, the respective antigens were”, “hour. […]” for “hour. After washing, an HRP-labelled antibody (GE Healthcare) was added for secondary reaction for 1 hour.”, “for 20” for “for 10”

[5] = Test 8: toxic dose by in vivo ocular toxicity test, TB staining; design: species or system Balb/c mice; details: 3 or 10 mg/kg intravenous twice a week, eyes removed day 30
Description: The ocular toxicity test was carried out using Balb/c mice. The mice intravenously received a solvent or “m20A77_mIgG1” at a dose of 3 or 10 mg/kg at a frequency of twice a week. At day 30 after the first administration, eyes were removed, fixed with a Karnovsky's fixative and then subjected to embedding in a resin, preparation of sections and TB staining carried out by Applied Medical Research Laboratory.

B1: hz20A77_hIgG1LALA: humanized antibody derived from m20A77 with human IgG1 constant region having LALA sequence (antibody, V domains shown)
VH: QVQLVQSGAEVKKPGSSVKVSCKASGNTFTSYWMHWVRQAPGQGLEWIGNINPSSGGTNYNEKFKSRVTITVDKSTSTAYMELSSLRSEDTAVYYCARLNYYGFDGFAFWGQGTLVTVSS
VL: DIQMTQSPSSLSASVGDRVTITCKASQDINSYLSWFQQKPGKAPKTLIYRANRLVSGVPSRFSGSGSGTDYTLTISSLQPEDFATYYCLQYDEFPFTFGGGTKVEIK
In the case of B1, the “antigen binding activity (reactivity) in ELISA” value [1] is reported as “reactivity similar to or higher than original human chimeric antibodies”.

B2: 24A1: anti-MerTK mouse monoclonal antibody clone; VH SEQ ID NO: 9, VL SEQ ID NO: 13 (antibody, V domains shown)
VH: EVQLVESGGGLVQPKGSLKLSCAASGFTFNVYDMHWVRQAPGEGLEWVARIRSKSSNYATNYADSVKDRFTISRDDSQSMLYLQMNNLQTEDTAIYYCVRDGSHYYYALDYWGQGTSVTVSS
VL: DIQMTQTTSSLSASLGDRVTISCRASQDINNYLNWYQQKLDGTVKLLIYYSSRLHSGVPSRFSGSGSGTDYSLTISNLEQEDIATYFCQQGKMFPWTFGGGTKLEIK
For B2, the “MerTK phosphorylation inhibitory activity” value [2] was “inhibited binding of Gas6 with MerTK and MerTK phosphorylation in a concentration dependent manner”, the “inhibition of binding of Gas6 with MerTK” value [3] was “inhibited binding of Gas6 with MerTK; also recorded: strongly inhibited binding of Gas6 with MerTK” and the “inhibition of binding of TULP1 with MerTK” value [4] was “did not inhibit binding of TULP1 with MerTK”.

B3: m20A77_mIgG1: mouse IgG1 antibody of m20A77 (antibody, V domains shown)
VH: QVQLQQPGTELVKPGASVKLSCRASGNTFTSYWMHWVKQRPGQGLEWIGNINPSSGGTNYNEKFKSKATLTVDKSSSTAYMQLSSLTSEDSAVYYCARLNYYGFDGFAFWGQGTLVTVSA
VL: DIKMTQSPSSMYASLGERVTITCKASQDINSYLSWFQQKPGKSPKTLIYRANRLVSGVPSRFSGSGSGQDYSLTISSLEYEDMGIYYCLQYDEFPFTFGSGTKLEIK
For B3, the “TB-positive granules (retinal pigment epithelium)” value ([5]; FIG. 19) was “no increase in TB-positive granules was observed” and the “abnormal shrinkage of the outer nuclear layer” value ([5]; FIG. 20) was “no abnormal shrinkage of the outer nuclear layer was observed”.

B4: hz24A1_hIgG1LALA: humanized antibody derived from 24A1 with human IgG1 constant region having LALA sequence (antibody, V domains shown)
VH: EVQLVESGGGLVQPGGSLRLSCAASGFTFNVYDMHWVRQAPGKGLEWVARIRSKSSNYATNYADSVKDRFTISRDDAKNSLYLQMNSLRAEDTAVYYCVRDGSHYYYALDYWGQGTTVTVSS
VL: DIQMTQSPSSLSASVGDRVTITCRASQDINNYLNWYQQKPGKAPKLLIYYSSRLHSGVPSRFSGSGSGTDYTLTISSLQPEDFATYYCQQGKMFPWTFGGGTKVEIK
With B4 the “antigen binding activity (reactivity) in ELISA” value [1] was “reactivity similar to or higher than original human chimeric antibodies”.
